Test: yeast display, Sf9 membrane polyspecificity reagent, FACS + sequencing; frameworks hold sequencing errors
Method in brief: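 Synthetic nanobody libraries on Saccharomyces cerevisiae BJ5465 were galactose-induced for 36–48 hours, stained 1 hour at 4 °C with 10% biotinylated, detergent-solubilized Sf9 membrane reagent and enriched on streptavidin microbeads. FACS then separated cells into low and high (top ~1%) gates by anti-HA (expression) and streptavidin (reagent binding) fluorescence. Genes were colony-PCR amplified, MiSeq 2 × 250 sequenced and CDR-length filtered. A clone's polyreactivity label is that of its gate of origin.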
With “QVQLQESVGGPVLAGGSLRLSCGASGTIFVRLDMGWYRQARGKVREFVATIGSGSSTYYADSVKGSFTISRDNVKNTVYLKMNSLKPEDTAVYYCAVYAAEQSRHYYWDQGTQVTVSS” the “polyreactivity (PSR sort gate)” value was “low polyreactivity”.
For “QVQLVESGGGLVQAGGSLRLSCAASGLTFAYYVMGSYRQAPWKERELVAAISRRGGSTYYADSVKGRFTISRDNAKNTVYLQMNSLKPEDTAVYYCNTDWPLPNGGEPGYWGQGTQVTVSS”, the “polyreactivity (PSR sort gate)” value was “high polyreactivity”.
With “QVQLVESGGGLVQAGGSLRLSCAASGRIVVGYAMGWYRQAPGKERELVAAINRSGSSTYYADSVKGRFTISRDNAKNTVYLQMNSLKPEDTAVYYCNARSGNRYGPRYDYWGQGTQVTVSS” the “polyreactivity (PSR sort gate)” value was “high polyreactivity”.
In the case of “QVQLVESGGGLVQAGGSLRLSCAASGSTFHRYPMGWYRQAPGKERELVAAISVRTGSTYYADSVKGRFTISRDNAKNTDYLQINRLTPEDTAVYYCAVGKQINGKIYRYDYWGQGTQVTVSS”, the “polyreactivity (PSR sort gate)” value is reported as “high polyreactivity”.
For “QVQLVESGGGLVQSGGSLRLSCAASGRTFRYYAMGWYRQAPGKERELVAAISSSGDRTYYADSVKGRFTISRDNAKNTVYLQMNSLKPEDTAVYFCAADRGARGDYWGQGTQVTVSS”, the “polyreactivity (PSR sort gate)” value was “high polyreactivity”.
With “QLQLVESGGGLVQAGGSLRLSCAASGRTFGYNVMGWYRQAPGKERELVAAISSSGGSTYYADSVKGRFTISRDNAKNTVYLQMNSLKPEDTAVYYCAAQVRYYQSGPMYYWGQGTQVTVSS” the “polyreactivity (PSR sort gate)” value was “high polyreactivity”.
In the case of “QVQLVESVGGLVQAGGSLRLTCAASGSTFWLNDMGWYRQATGKERELVAAISFSGASTYYADSVKGRFTISRDNAKNTVYLQMNILKPEDTAVYYCNAGWGRAEFLSEAVFDSRMYYWGQGTQVTVSS”, the “polyreactivity (PSR sort gate)” value is reported as “low polyreactivity”.
For “QVQLVESGGGLVQAGGSLRLSCAASGFIFGYNAMGWYRKAPGTERELVAAITWIGGTTYYADSVKGRFTISRDNAKNTVYLQMNSLKPEDTAVYYCARQRSYGRSSYSYGYDYWGQGTQVTVSS”, the “polyreactivity (PSR sort gate)” value was “high polyreactivity”.
For “QVQLVESGGGLVQAGGSLRLSCAASGSTFRTKAMGWYRHAPGKERELVAAITSGTRTYYADSVKGRFTLSRDNAKNTVYLQMNSLKPEDTAVYYCAAEYYGSSYSNYRTEYDYWGQGTQVTVSS”, the “polyreactivity (PSR sort gate)” value was “low polyreactivity”.
With “QVQLVESGGGLVQAGGSLRLSCAASGSTFPFYAMGWYRQAPGKEREFVAVISSSGGSTYYADSVKGRFTISRDNAKNTVYLQMNSLKPEDTAVYYCARSYPGRWYDYWGQGTQVTVSS” the “polyreactivity (PSR sort gate)” value was “high polyreactivity”.
With “QVQLVESGGGLVQAGGSLRLSCAASGRTFAIYAMGWYRQAPGKERELVAGITIRGGRTYYADSVKGRFTISRYIAKNTVYLQMNSLKPEDTAVYYCNARGWYEYGWGQGTQVTVSS” the “polyreactivity (PSR sort gate)” value was “high polyreactivity”.
In the case of “QVQLVESGGGLVQAGGSLRLSCAASGIISYKNVMGWYRQAPGKERELVAAISGRGGSTYYADSVKGRFTISRDNAKNTVYLQMNSLKPEDTAVYYCAKYPGISGYNYWGQGTQVTVSS”, the “polyreactivity (PSR sort gate)” value is reported as “high polyreactivity”.
In the case of “QVQLVESGGGLVQAGVSLRLSCAASGRIFRFYAMGWYRQAPGIDRELVATISRSGGSTYYADSVKGRFTISRDNAKNNAYLQMNSLKPEDTAVYYCAAQRLHDGDYWVQGTQVTVSS”, the “polyreactivity (PSR sort gate)” value is reported as “high polyreactivity”.
With “QVQLVESGGGLVQAGGSLRLSCAASGFIFKRYTMGWYRPAPGKERELVATINWNGGNTYYADSVKGRFTISRDNAKNTVYLQMNSLKPEDTAVYYCNARYWRGQGWPGYDYWGQGTQVTVSS” the “polyreactivity (PSR sort gate)” value was “high polyreactivity”.
With “QVQLVESGGGLVQAGGSLRLSCAASGRTFVGNAMGWYRQAPGKERELVAVITGSGARTYYADSVKGRFTISRDNAKNTVYLQMNSLKPEDTAVYYCAAAGYSGQYRSYYWGQGTQVTVSS” the “polyreactivity (PSR sort gate)” value was “high polyreactivity”.
For “QVQLVESGGGLVQAGGSLRLSCASSGRTFSGYAMGWYRQAPGKERELVASITWSGGSTYYADSVKGRFTISRDNAKNTVYLQMNSLKPDDTAVYYCARDSPRGRVGFNYWGQGTQVTVSS”, the “polyreactivity (PSR sort gate)” value was “low polyreactivity”.
For “QVQLVESGGGLVQAGGSLRLSCAASGRTFASYAMGWYRKAPGKETELVATISSGDSTYADSVKGRFTISRDNAKITVYLQRNRLKPEDTAVYYCAAASDLPGTCGYDYWGQGTQVTVSS”, the “polyreactivity (PSR sort gate)” value was “low polyreactivity”.
In the case of “QDQLVESGGGLVQAGGSLRLSCAASGSIFPDYTMGWYRQAPGKERELVPGNTWNGGGTYYADSVKGRITISRDNAKNTVYLQMYSLKPEDTAVYYCAAVWSGSRSTGAWGPYNYWGQGTQVTVSS”, the “polyreactivity (PSR sort gate)” value is reported as “low polyreactivity”.
In the case of “QVQLVESGGGLVQAGGSLRLSCAASGSIFYKNAMGWYRQAPGKERELVAVISTSGSTYYADSVKGRFTISRDNAKNTVYLQMKSLKPEDTAVYYCATKVRRWYSARSPNVRFDYWGQGTQVTVSS”, the “polyreactivity (PSR sort gate)” value is reported as “high polyreactivity”.
For “QVQLVESGGGLVQAGGSLRLSCAASGITFGYNAMGWYRQAPGKDRELVAAITRSAGSTGYADSVKGRFTISRDNAKNTVYLQMNSLKPEDTAVYYCAAVRLSGSHRYGYWGQGTQVTVSS”, the “polyreactivity (PSR sort gate)” value was “high polyreactivity”.
In the case of “QVQLVESGGGLVQAGGSLRLSCAASGSTFSRYAMRWYRQAPGKEMELVAAISSRGGSTYYADSVKGRFTISRDNAMNTVYLQMNSLKPEDTAFYYCAVKSYRLTGRGYWGQGTQVTVSS”, the “polyreactivity (PSR sort gate)” value is reported as “high polyreactivity”.
In the case of “QVQLVESGGGLVQAGGSLRLSCAATGGTFNVYAMGWYRQAPGKESELVAAIRWSGGSTYYADSVKGRFTISRDNAKNTVYLQMNSLKPEDTAVYYCAARFYGRSQTYGSWGLGTQVTVSS”, the “polyreactivity (PSR sort gate)” value is reported as “high polyreactivity”.
With “QVQLVESGRGLVQAGGSLRLTCAASGRIFYLNAMGGYRQAPGKERELVAGITNSTTGTYYADSVKGRFTIARDNAKNTVYLQMNSLKPVDTAVYYCNTDVAYEEPVETYDYWGQGTQVTVSS” the “polyreactivity (PSR sort gate)” value was “low polyreactivity”.
For “QVQLVESGGGLVQAGGSLRLICAASGFIFDSYAMGWYRQAPGKARELVAAISVNGGTTYYADSVKGRFTISRDNAKNTVYLQMISLKPEDTAVYFCNADLYYDVGQPMDYWGQGTQVTVSS”, the “polyreactivity (PSR sort gate)” value was “low polyreactivity”.
With “QVQLVESGGGLVQAGGSLRLSCAASGRTFRRYTMGWYRQAPGKESELVATISSGGSTYADSVKGRFTISLDNAKNTVYLQMNSLKPEDTAVYYCAARYDVAWYSKRYSWGQGTQVTVSS” the “polyreactivity (PSR sort gate)” value was “high polyreactivity”.
With “QVQLVESGVGLVQAGGSLRLSCAASGITFGRNTMGWYRQAPGKERELVAAIDSGGNTYADSVKGRFTISRDNAKNTVYLQMNSLRSEDTAVYYCNARETHQSRYGYWGQGTQVTVSS” the “polyreactivity (PSR sort gate)” value was “low polyreactivity”.
In the case of “QVQLQESGGGLVQAGGSLLSCAASGTISWVDEMGWYRQAPGNERELVAGIAGGGNTNYADSVKGRFTISRDNAKNTVYLLMNSLDTAVYYCAVVGFGRGNHIYWGQGTQVTVSS”, the “polyreactivity (PSR sort gate)” value is reported as “high polyreactivity”.
With “QVQLVESGGGLVQAGGSLRLSCAASGRTFRTYTMGWYRQAPGKERELVAAISIGGRTNYADSVKGRFTISRDNAKNTVFLQMNSLKPEDTAVYYCIAARWVPRSYGYWGLGTQVTVSS” the “polyreactivity (PSR sort gate)” value was “high polyreactivity”.
For “QDQLVESGGGLDQAGGRLRLSCAASGSIFGVYAMGWYRQAPGKERELVASITWSSGSTNYADSVKGRFTISRDNAKNTVYLQMNSLKPEDTAVYYCNRVYARSQRVVTKFHYDYWGQGTQVTVSS”, the “polyreactivity (PSR sort gate)” value was “low polyreactivity”.
With “QVQLVESGGGLVQAGGSLRLSCAASGRIFYRNAMGWYRQAPAKERELVAAISWSGGRTYYADSVKGRFTISRDNAKNTVYLQMNSLKPEDTAVYYCNARTGYYTGQYDYWGQGTQVTVSS” the “polyreactivity (PSR sort gate)” value was “high polyreactivity”.
For “QDQHVDSGGGLVQAGGSLRLSCAASGFIFPQNAMGWYRQAPGKERELVAAISKRGGSTYYADSVKGRFTISRDNAKNTVYLQMNSLNPEDTAVYYCAVRYYFYRPGGYDYWGQGTQLTVSS”, the “polyreactivity (PSR sort gate)” value was “high polyreactivity”.
In the case of “QVQHVESGGGLVQAGGSLRLSCAASGRTTYTNARGWYRQAPGKERELVASISWRGGSSYYADSVKGRFTISRDNAKNTVYLQMNSLIPEDTAVYYCAASWPRWWRFGYWGQGTQVTVSS”, the “polyreactivity (PSR sort gate)” value is reported as “low polyreactivity”.
With “QVQLVESGGGLVQAGGSLRLSCAASGSTFRGYVMGWYRQAPGKERELVAAISRSGTSTYYADSVKGRFTISRDNAKNTVYLQMNSLKPEDTAVYYCAAQLYGHGEDYWGQGTQVTVSS” the “polyreactivity (PSR sort gate)” value was “high polyreactivity”.
For “QVKLVESGGGLVQAGGSLRLSCAASGSIFALYAMGWYRQAPGKEREFVARISWGGGRTYYADSVKGRFTISRDNAQNTVYLQMNSLKPEDTAVYYCNAERAGTYSYDYWGQGTQVTVSS”, the “polyreactivity (PSR sort gate)” value was “high polyreactivity”.
In the case of “QVQLVESGGVLVQAGGSLRLSCAASGRTSFYYGVGWSRQAPGKERELVAGINYGGGSTYYADSVKGRFSISRDTAKNTVYLQMNSLKPEDTAVYYCAAYRRTLGDYWGQGTQVTVSS”, the “polyreactivity (PSR sort gate)” value is reported as “low polyreactivity”.
With “QVQLVESGGGLVQAGGSLRLSCAASGGTFDNYAMGWYRQAPGKERELVAAISWSGDNTYYADSVKGRFTISRDNAKNTVYLQMNSLKPEDTAVYYCAAVYFWYSYDEGYTAYDYWGQGTQVTVSS” the “polyreactivity (PSR sort gate)” value was “low polyreactivity”.
For “QVQLVESGGGLVQAGGSLRLSCAASGFTFRYYTMGWYRQAPGKERELVASISRRGGSTYYADSVKGRFTISRDNAKNTVYLQMNSLKPEDTAVYYCNTLSQVFASRAPKFDYWGHGTQVTVSS”, the “polyreactivity (PSR sort gate)” value was “high polyreactivity”.
In the case of “QVQLVESGGGLVQAGGSLRLSCAAYGSTFRYYTMGWYRQAPGKERELVAAISGSGGITYYADSLKGRFTISRDNAKNTVYLQMNSLKPEDTAVYYCAAESRYYPYWGQSVQYDYWGQGTQVTVSS”, the “polyreactivity (PSR sort gate)” value is reported as “high polyreactivity”.
With “QVQLVESGGGLVQAGASLRLSCAASGRIFGRNAMGWYRQAPGKERELVAAISSGSGSTYYADSVKGRFTISRDNAKHTVYLQLNSLIPEDTAVYYCAATVSTYLAWRGYWGQGTQVTVSS” the “polyreactivity (PSR sort gate)” value was “high polyreactivity”.
For “QVQLVESGGGLVQAGGSLRLSCAASGRIFWGNGMGWYRQAPGKEREFVAAISKSGGSTYYADSVKGRFTISRDNAKNTVYLQMNSLKPEDTAVYYCAARAPYSYSGYGYWGQGTQVTVSS”, the “polyreactivity (PSR sort gate)” value was “high polyreactivity”.
For “QVQLVESGGGLVQAGGSLRLSCAASGSTFTFYAMGWYRQAPGKERELVAAISGRGGSTYYADSVKGRFTISRDNAMNTVYLQMNSLKPEDTAVYYCAAGWSRVWRRDFGYWGQGTQVTVSS”, the “polyreactivity (PSR sort gate)” value was “low polyreactivity”.
For “QVQLVESGGGLVQAGGSLRLSCDASGRIFDYYAMGWYRQAPGKEMELVAAISTSGGSTYYADSVKGRFTISRDNAKNTVYLQMTRLKPEDTAVYYWAKDITDTYPGLDYDYWGQGTQVTVSS”, the “polyreactivity (PSR sort gate)” value was “low polyreactivity”.
For “QVQLVESGGGLVQAGGSLRLSCAASGSILSENAMGWYRQAPGKERELVATISGSGSSTYYADSVKGRFTISRDNAKNTVYLQMNSLKPEDTAVYYCAAKYYLYWWPYDYWGQGTQVTVSS”, the “polyreactivity (PSR sort gate)” value was “low polyreactivity”.

Reference: the nanobody polyreactivity screen of Harvey et al. (2022)
